Data from paper PMC3457997.

Columns and labels:
[1] = molecular target: CD95(1–158)-mCherry (human); test: SEC; concentrated serum-free supernatants of transfected HEK cells on Sephacryl S-300 and S-200 High Resolution columns in PBS, 0.5 mL/min; fractions analysed by immunoblot with anti-DsRed
[2] = molecular target: CD95(1–66)-mCherry (human); test: as above

| Substance | stoichiometry N [1] | stoichiometry N [2] |
| --- | --- | --- |
| CD95(1–158)-mCherry (domain or fragment) | 3 | – |
| CD95(1–66)-mCherry (domain or fragment) | – | 2 |
